Assay results: article PMC9761383 (2022)
Blank lines part the entries; values can stand above or below the molecule they belong to.

Assays:
[1] = target: collagen α1α1α2(IV) purified from conditioned culture medium of WT PFHR9 cells (mouse (endogenous in PFHR9)); test: rotary shadow electron microscopy; purified collagen α1α1α2(IV) (about 100 μg/ml) in 0.2 M acetic acid, 70% glycerol, sprayed on mica, carbon/platinum shadowed; molecules counted (WT n = 690, LH3 KO n = 295); hexamers = two heterotrimers, dodecamers = four heterotrimers
[2] = target: collagen α1α1α2(IV) purified from conditioned culture medium of LH3 KO PFHR9 cells (mouse (endogenous in PFHR9)); test: as above
[3] = target: T1, collagen α1α1α2(IV) purified from conditioned culture medium of LH3 KO PFHR9 cells (mouse (endogenous in PFHR9), more unmodified lysines (significantly fewer hydroxylysines)); high occupancy of galactosyl Hyl but not glucosyl galactosyl Hyl; prolyl 4 hydroxylation reduced | more unmodified lysines (significantly …); test: SPR
T1 sequence (P02463 28-1669, chain 1 of 2): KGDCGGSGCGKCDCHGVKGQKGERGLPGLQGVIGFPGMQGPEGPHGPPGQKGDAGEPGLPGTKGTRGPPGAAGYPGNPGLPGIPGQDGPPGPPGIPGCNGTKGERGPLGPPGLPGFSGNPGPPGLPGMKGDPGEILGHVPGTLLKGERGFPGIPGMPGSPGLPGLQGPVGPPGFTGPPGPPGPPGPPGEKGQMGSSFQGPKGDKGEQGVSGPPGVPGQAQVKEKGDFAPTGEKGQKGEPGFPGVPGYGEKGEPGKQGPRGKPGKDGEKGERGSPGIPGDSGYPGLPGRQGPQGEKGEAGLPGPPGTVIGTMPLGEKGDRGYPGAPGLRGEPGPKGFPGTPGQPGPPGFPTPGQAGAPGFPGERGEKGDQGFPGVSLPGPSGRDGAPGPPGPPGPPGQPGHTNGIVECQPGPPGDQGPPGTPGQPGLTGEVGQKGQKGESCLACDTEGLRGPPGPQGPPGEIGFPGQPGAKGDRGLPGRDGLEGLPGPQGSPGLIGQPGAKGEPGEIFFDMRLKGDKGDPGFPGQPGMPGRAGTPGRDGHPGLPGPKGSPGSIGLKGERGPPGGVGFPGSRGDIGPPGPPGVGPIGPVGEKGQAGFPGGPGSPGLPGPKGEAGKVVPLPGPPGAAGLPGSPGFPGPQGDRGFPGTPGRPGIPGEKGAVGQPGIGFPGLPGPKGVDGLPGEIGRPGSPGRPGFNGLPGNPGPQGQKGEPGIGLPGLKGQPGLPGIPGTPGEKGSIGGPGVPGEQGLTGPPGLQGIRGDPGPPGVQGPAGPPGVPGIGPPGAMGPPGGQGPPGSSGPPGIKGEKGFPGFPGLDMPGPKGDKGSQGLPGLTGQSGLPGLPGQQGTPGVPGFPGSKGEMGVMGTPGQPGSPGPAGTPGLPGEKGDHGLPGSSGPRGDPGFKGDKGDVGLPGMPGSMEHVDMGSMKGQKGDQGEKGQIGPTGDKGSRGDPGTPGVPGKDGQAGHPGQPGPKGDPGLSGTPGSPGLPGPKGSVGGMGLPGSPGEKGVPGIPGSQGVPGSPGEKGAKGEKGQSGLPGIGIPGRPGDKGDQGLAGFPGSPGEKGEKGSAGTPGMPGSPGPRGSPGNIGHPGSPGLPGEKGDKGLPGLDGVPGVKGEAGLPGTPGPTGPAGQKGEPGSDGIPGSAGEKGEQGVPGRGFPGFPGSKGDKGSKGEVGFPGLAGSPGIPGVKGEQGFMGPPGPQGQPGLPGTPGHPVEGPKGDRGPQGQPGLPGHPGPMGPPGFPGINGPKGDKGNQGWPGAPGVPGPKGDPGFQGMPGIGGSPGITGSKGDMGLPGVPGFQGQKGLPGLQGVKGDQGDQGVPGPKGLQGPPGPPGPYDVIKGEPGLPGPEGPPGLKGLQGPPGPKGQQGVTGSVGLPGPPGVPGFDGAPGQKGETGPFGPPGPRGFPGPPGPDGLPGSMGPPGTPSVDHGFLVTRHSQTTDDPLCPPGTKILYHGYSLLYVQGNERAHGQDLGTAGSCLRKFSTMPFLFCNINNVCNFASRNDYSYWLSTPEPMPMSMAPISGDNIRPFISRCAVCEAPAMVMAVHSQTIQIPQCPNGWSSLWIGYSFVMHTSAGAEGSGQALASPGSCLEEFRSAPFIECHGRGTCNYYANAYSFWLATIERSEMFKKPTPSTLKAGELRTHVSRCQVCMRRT
T1 sequence (P08122 26-1707, chain 2 of 2, further chain): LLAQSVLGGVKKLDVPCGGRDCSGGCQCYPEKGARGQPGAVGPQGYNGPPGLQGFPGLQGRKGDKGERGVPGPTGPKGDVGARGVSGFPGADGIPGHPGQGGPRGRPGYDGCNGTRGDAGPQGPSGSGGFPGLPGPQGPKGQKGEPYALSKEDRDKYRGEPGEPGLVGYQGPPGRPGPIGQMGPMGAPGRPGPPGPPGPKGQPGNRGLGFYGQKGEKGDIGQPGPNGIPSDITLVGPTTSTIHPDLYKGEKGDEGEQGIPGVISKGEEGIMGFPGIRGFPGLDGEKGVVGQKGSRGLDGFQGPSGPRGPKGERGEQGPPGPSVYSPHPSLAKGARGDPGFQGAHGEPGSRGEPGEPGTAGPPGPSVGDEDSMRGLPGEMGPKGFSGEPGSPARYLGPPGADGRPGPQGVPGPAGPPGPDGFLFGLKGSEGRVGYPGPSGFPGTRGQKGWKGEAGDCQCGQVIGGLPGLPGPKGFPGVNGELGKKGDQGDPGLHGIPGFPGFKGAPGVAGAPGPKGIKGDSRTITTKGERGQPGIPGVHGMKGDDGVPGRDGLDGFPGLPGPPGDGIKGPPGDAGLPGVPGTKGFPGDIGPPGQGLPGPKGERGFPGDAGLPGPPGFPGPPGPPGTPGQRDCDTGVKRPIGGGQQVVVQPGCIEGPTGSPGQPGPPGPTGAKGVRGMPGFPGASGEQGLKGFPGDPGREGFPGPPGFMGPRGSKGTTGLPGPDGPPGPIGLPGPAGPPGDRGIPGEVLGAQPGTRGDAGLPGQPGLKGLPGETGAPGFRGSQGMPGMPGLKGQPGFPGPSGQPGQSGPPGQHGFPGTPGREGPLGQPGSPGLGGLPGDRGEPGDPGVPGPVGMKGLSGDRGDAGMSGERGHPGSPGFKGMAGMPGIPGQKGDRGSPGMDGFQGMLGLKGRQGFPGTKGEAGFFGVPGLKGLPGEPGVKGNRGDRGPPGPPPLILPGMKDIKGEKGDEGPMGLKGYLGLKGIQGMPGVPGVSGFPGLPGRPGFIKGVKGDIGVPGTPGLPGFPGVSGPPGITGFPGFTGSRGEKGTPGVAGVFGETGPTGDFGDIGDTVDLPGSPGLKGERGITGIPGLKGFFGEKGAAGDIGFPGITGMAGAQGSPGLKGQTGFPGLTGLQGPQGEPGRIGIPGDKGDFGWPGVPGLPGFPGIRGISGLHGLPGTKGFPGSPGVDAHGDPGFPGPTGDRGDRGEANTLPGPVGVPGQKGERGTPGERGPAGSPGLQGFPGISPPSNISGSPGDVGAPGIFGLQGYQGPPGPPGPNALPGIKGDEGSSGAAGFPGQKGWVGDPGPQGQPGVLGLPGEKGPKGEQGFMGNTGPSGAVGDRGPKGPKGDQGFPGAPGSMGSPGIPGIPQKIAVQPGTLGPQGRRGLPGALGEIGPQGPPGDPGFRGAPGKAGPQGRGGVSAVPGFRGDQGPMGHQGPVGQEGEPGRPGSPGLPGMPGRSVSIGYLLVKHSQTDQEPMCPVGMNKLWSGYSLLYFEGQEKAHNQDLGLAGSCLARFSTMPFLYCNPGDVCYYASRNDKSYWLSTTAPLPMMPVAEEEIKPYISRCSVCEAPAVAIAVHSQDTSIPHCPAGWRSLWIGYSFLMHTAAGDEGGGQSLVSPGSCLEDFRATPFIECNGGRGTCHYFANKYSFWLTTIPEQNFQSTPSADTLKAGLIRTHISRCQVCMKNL

[4] = target: T2, collagen α1α1α2(IV) purified from conditioned culture medium of WT PFHR9 cells (mouse (endogenous in PFHR9), hydroxylysines, almost fully modified to glucosyl galactosyl Hyl; 4-hydroxyproline; 3-hydroxyproline | hydroxylysines, almost fully modified to glucosyl galactosyl Hyl; 4-hydroxyproline; …); test: SPR
T2 sequence (P02463 28-1669, chain 1 of 2): as the sequence (P02463 28-1669, chain 1 of 2) above
T2 sequence (P08122 26-1707, chain 2 of 2, further chain): as the sequence (P08122 26-1707, chain 2 of 2, further chain) above

[5] = target: T1, collagen α1α1α2(IV) purified from …; test: SPR; remark: listed apart in the source
[6] = target: T2, collagen α1α1α2(IV) purified from …; test: SPR; remark: listed apart in the source

percent of molecules seen as dodecamers (four heterotrimers) [1]: 9%
percent of molecules seen as hexamers (two heterotrimers) [1]: 8.5%
Molecule: collagen α1α1α2(IV) purified from conditioned culture medium of WT PFHR9 cells (complex)

percent of molecules seen as shortened hexamers (two heterotrimers) [2]: 7.8%
Molecule: collagen α1α1α2(IV) purified from conditioned culture medium of LH3 KO PFHR9 cells (complex)

koff [3]: 0.107 s⁻¹
koff [4]: 0.0226 s⁻¹
Kd [5]: 116 nM
Kd [6]: 17.9 nM
B1: heat shock protein 47 (natural protein)
chain: VPSEDRKLSDKATTLADRSTTLAFNLYHAMAKDKNMENILLSPVVVASSLGLVSLGGKATTASQAKAVLSADKLNDDYVHSGLSELLNEVSNSTARNVTWKIGNRLYGPASINFADDFVKNSKKHYNYEHSKINFRDKRSALKSINEWAAQTTDGKLPEVTKDVEKTDGALIVNAMFFKPHWDEKFHHKMVDNRGFMVTRSYTVGVPMMHRTGLYNYYDDEAEKLQVVEMPLAHKLSSMIFIMPNHVEPLERVEKLLNREQLKTWASKMKKRSVAISLPKVVLEVSHDLQKHLADLGLTEAIDKTKADLSKISGKKDLYLSNVFHAAALEWDTDGNPYDADIYGREEMRNPKLFYADHPFIFMIKDSKTNSILFIGRLVRPKGDKMRDEL
